Common to all, as to assay: EMSA
The target in data set [1] is T1, MdEIL1 DNA-binding domain (His-MBP fusion) (UniProt D5L144 1-311).
T1 sequence: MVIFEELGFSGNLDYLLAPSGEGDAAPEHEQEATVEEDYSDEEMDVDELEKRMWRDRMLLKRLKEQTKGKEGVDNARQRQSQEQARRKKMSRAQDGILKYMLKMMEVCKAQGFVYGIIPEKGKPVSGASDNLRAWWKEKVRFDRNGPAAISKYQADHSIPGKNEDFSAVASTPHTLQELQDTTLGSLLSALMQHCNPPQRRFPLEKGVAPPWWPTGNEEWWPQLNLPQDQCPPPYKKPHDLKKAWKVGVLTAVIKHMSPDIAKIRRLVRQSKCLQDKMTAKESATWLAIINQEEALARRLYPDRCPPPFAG

Data set [2] addresses T2, MdEIL2 DNA-binding domain (His-MBP fusion) (UniProt D5L145 1-311).
T2 sequence: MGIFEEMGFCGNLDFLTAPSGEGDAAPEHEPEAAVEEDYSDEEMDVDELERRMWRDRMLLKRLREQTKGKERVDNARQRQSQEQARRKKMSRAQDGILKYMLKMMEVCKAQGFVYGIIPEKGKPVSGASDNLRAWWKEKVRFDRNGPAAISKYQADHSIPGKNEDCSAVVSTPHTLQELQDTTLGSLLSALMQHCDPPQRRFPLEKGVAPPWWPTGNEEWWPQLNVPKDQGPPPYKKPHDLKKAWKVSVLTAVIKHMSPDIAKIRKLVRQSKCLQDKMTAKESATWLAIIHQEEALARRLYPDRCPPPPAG

Data set [3] addresses T3, MdEIL3 DNA-binding domain (His-MBP fusion) (UniProt D5L146 1-311).
T3 sequence: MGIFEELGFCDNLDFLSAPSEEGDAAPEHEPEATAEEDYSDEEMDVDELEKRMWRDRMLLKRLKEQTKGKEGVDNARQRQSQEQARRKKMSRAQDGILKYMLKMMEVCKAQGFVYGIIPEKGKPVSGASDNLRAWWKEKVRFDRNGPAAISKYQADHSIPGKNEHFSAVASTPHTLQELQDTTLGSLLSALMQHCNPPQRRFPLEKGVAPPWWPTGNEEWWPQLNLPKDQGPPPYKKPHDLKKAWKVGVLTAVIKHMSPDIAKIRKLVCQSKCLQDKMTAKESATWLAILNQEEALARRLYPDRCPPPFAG

The target of a further data set is His-MBP (UniProt P0AEX9 27-396).

B1: proMdAFS1 MUT probe (dsDNA)
DNA 1: CCCACCCCTCCGGTAGCCTCTTTGATATCCCA
DNA 2: TGGGATATCAAAGAGGCTACCGGAGGGGTGGG
With B1, the binding result in data set [1], in data set [2] and in data set [3] was “no binding” in each case.

B2: proMdAFS1 WT probe (dsDNA)
DNA 1: CCCACCCCTCCGGAGATTCATTTGATATCCCA
DNA 2: TGGGATATCAAATGAATCTCCGGAGGGGTGGG
As to B2, the binding result is on record as “no binding” in the data set with His-MBP, “binds” in data set [1], “binds” in data set [2] and “binds” in data set [3].

(Values after paper PMC11886506.)
